Assay results published in patent US20240285753A1.

Tests used:
[1] = biological target: synthetic stem helix peptide (SARS-CoV-2 spike residues 1140-1164) (SARS-CoV-2), P0DTC2; assay: ELISA, peptide adsorbed on the plate, mAb titrated
[2] = biological target: synthetic fusion peptide (SARS-CoV-2 spike residues 808-833) (SARS-CoV-2), P0DTC2; assay: ELISA, coated antigen, mAb titrated

B1: Cov30-14 (antibody)
chain 1: QVQLVQSGAEVKKPGASVKVSCQTSGYTFTSYYMHWVRQAPGQGLEWMGLITPSGDDTYYAQRFQGRVTMTRDTSTSPTYMELSSLTSEDTAVYYCAKMSRAGGFDVWGQGTLVTVSS
chain 2: EVVLTQSPGTLSLSPGERATLSCRASQSITGRYLAWYQQKPGQAPRLLMYGESSRVTGIPDRFSGGGSGTDFTLTISRLEPEDFAVYYCQHFASSPPTYTFGQGTKLEIR
- EC50 (read off the curve) [1]: 0.03 µg/mL

B2: COV44-79 (antibody)
chain 1: QVQLVESGGGVVQPGRSLRLSCAASGLTFSGYAMHWVRQAPGKGLEWVAVISRDARNKYYADSVKGRFTISRDNSKKTVYLEMNSLRVEDTAVYYCAILIIPGITEPGSPDALDIWGQGTMVSVSS
chain 2: DIQMTQSPSSMSASVGDRVTITCRASQDISKWLAWYQQRPGKAPKLLIYAASSLQSGVPSRFSGSGSGTDFTLTISSLQPEDFATYYCQQASSFPWSITFGQGTRLEIR
- EC50 (read off the curve) [2]: 0.7 µg/mL

B3: Cov89-22 (antibody)
chain 1: QEQLVQSGAEVKKPGASVKVSCKSSGFTFSYFYLHWVRQAPGQGLEWMGIINPRGDGTRYAQKFQGRVTMTRDASTGTLYMELRSLRSEDTAVYYCARGADHGAFDIWGQGTMVTVSS
chain 2: EIVLTQSPGTLSLSPGERATLSCRASQSVRRNYFAWYQQKRGQAPRLLIYDASTRATGIPDRFSGSGSGTDFTLTISRLEPEDFAVYYCQQYDSSPPMYIFGQGTKLEIK
- EC50 (read off the curve) [1]: 0.02 µg/mL
